Each block holds one binder with its values, some of them ahead of it.
Key:
peptide 25 = target: T1, peptide 25 (N-terminal biotin); assay: ELISA on biotinylated 20-mer c-Met peptides on streptavidin plates, A405 nm
T1 peptide: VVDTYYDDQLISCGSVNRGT
Method: (§1) The library consisted of N-terminally biotinylated, 20-mer peptides, overlapping by 15 amino acids and pre-absorbed onto 96-well streptavidin coated plates. LMH antibodies 80 to 89 were added to these plates to determine their reactivity against each single peptide using standard ELISA. Epitopes for each antibody were determined by overlaying the sequences of the peptides which reacted with the antibody, leading to a determination of a core common amino acid sequence.
(§2) The peptide sequence bound by each antibody was aligned to determine the core epitope.

peptide 24 = target: T2, peptide 24 (N-terminal biotin); assay: as above
T2 peptide: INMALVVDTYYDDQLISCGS
Method: as §1, §2

peptide 23 = target: T3, peptide 23 (N-terminal biotin); assay: as above
T3 peptide: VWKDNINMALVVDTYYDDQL
Method: as §1, §2

[1] = target: T4, purified truncated c-Met fragment designated 25-567H (human, UniProt P08581 25-567); assay: ELISA, plate coated with recombinant truncated c-Met antigen
T4 construct: Produced in transfected CHO-Lec cells; also called c-Met antigen; c-Met Ag
T4 sequence (P08581 other isoform, or with tags, fused parts or gaps limits assumed): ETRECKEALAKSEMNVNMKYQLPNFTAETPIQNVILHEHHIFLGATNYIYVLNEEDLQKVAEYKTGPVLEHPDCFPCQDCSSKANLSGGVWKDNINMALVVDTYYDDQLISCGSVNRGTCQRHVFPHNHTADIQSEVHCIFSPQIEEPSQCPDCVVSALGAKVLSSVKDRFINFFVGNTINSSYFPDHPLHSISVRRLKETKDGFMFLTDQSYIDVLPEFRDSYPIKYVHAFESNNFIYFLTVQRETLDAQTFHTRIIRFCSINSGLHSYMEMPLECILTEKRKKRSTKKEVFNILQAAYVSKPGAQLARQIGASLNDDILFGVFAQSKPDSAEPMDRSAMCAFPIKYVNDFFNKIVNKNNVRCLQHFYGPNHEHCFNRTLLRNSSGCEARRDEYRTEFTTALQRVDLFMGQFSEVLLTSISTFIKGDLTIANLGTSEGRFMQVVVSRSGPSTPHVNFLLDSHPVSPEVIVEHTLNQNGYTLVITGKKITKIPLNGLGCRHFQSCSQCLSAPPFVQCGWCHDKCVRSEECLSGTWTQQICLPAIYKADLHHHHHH
Method: Following incubation, the supernatant was removed and the wells washed twice with wash buffer 0.05% Tween20-PBS, this was followed by a 1 hour block at room temperature with 3% FCS/PBS at 230 μl/well. The wells were then washed one with wash buffer (0.05% Tween 2-PBS) and rinsed with PBS. 100 μl of sample (hybridoma supernatant) was then added to each well and the plate incubated at room temperature for 1 hour. This was followed by a 4× wash with wash buffer (0.05% Tween 2-PBS) and rinse with PBS. 100 μl of goat anti-mouse Ig gamma-AP (Sigma A3438), diluted in wash buffer 1:2000 was then added and allowed to incubate at room temperature for 1 hour. Following the incubation, the wells were washed 4× with wash buffer and rinsed with PBS. The reaction was developed with 100 μl of pNPP (1 mg/ml n diethanolamine-HCL buffer pH 9.6) for 10 mins at room temperature. This was followed by stop solution (3.0 M NaOH, 50 μl/well). The OD was measured at 405 nm.

unprocessed c-Met (p170) = target: T5, unprocessed c-Met (p170) (human, UniProt P08581 25-1390); assay: immunoprecipitation from A549 cells, western blot with 25H2 under reducing conditions
T5 construct: whole, on cells; Single-chain precursor, not cleaved at the furin site; also called unprocessed form of c-Met; c-Met precursor
T5 sequence (P08581 25-1390): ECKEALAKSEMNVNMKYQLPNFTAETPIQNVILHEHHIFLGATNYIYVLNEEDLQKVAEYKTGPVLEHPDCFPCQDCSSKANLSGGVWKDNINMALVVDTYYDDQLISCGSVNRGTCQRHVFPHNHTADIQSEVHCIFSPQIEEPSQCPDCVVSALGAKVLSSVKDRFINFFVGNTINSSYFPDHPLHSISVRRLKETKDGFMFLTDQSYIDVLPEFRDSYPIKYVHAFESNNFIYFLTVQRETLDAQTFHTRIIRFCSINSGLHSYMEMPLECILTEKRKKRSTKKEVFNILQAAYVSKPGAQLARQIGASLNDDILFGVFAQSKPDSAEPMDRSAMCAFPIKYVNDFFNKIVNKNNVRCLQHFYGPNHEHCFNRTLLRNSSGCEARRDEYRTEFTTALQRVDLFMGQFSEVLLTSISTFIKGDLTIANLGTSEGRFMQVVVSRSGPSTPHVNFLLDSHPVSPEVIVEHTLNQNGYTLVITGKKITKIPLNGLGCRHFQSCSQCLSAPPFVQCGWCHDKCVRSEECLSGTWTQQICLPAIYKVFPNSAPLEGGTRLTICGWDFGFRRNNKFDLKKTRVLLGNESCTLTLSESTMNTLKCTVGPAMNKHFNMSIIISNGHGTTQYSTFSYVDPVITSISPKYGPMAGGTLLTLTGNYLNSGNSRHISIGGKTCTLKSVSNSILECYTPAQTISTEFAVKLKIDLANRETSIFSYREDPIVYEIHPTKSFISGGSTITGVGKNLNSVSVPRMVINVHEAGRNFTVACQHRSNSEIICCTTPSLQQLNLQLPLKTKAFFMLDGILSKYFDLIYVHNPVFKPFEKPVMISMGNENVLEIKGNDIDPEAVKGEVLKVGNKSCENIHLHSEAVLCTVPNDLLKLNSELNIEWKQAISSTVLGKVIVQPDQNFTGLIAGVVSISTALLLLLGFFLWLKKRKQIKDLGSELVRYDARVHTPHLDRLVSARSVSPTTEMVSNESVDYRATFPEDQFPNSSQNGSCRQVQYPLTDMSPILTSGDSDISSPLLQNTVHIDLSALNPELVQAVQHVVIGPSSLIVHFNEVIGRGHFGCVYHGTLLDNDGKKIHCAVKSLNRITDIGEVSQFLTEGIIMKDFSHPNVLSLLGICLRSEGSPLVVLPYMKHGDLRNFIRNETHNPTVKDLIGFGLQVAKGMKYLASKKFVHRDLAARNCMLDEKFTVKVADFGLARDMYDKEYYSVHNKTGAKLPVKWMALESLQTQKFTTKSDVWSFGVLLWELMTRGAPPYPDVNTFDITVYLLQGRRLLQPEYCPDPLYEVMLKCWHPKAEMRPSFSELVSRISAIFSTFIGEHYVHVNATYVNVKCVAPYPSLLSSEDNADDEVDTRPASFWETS

[2] = target: T6, c-Met receptor as expressed by human tumor cells (total c-Met) (human, UniProt P08581 25-1390); assay: flow cytometry on A549 cells, PE-conjugated anti-mouse secondary antibody
T6 construct: whole, on cells; also called surface c-Met; HGFR
T6 sequence (P08581 25-1390): as above
From the text: The control antibody was a mouse IgG1 isotype matched antibody. An increase in PE signal intensity indicated antibody binding to c-Met.

peptide 48 = target: T7, peptide 48 (N-terminal biotin); assay: ELISA on biotinylated 20-mer c-Met peptides on streptavidin plates, A405 nm, mean ± SEM
T7 peptide: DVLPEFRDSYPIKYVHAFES
Method: as §1, §2

peptide 47 = target: T8, peptide 47 (N-terminal biotin); assay: as above
T8 peptide: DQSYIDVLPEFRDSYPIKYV
Method: as §1, §2

peptide 46 = target: T9, peptide 46 (N-terminal biotin); assay: as above
T9 peptide: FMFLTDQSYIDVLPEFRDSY
Method: as §1, §2

[3] = target: T4, purified truncated c-Met fragment …; assay: BIAcore, His6-c-Met 25-567 on Ni-NTA chip, antibody passed over; apparent KD
From the text: The LMH antibodies were passed over the chip at varying concentrations in order to determine apparent affinity (KD). Chips were regenerated with EDTA.

binding result (peptide 25): binds
binding result (peptide 24): binds
binding result (peptide 23): binds
B1: antibody LMH 82 (antibody, V domains shown)
VH: EVQLQQSGPELVKPGASVKMSCKASGYTFTDYYMKWVKQSHGKNLEWIGDINPNNGGTNYNQKFKGKATLTVDKSSSTAYMQLNSLTSEDSAVYYCARSGYWGQGTTLTVSS
VL: DVLMTQTPLSLPVSLGDQASISCRSSQSILHSNGNTYLEWYLQKPGQSPKLLIYKVSNRFSGVPDRFSGSGSGTDFTLKISRVEAEDLGVYYCFQGSHVPWTFGGGTKLEIK
notes: Mouse monoclonal antibody from a hybridoma; also called hybridoma PTA-11406

binding result [1]: binds
binding result (unprocessed c-Met (p170)): binds
binding result [2]: binds
B2: antibody LMH 85 (antibody, V domains shown)
VH: QVQLQQSGAELAKPGASVKMSCKASGYTFIIYWIHWIKQRPGQGLEWIGYINPSNDYTEYNQKFKDKATLTADKSSNTAFMQLSSLTSEDSAVYYCARDSYDYDDGAYAMDYWGQGTSVTVSS
VL: QIVLSQSPAILSASPGEKVTMTCRASSGVNYMHWYQQKPGSSPKPWIYATSNLASGVPARFSGSGSGTSYSLTISRVEAEDAATYYCQQWISHPFTFGSGTKLEIK
notes: Mouse monoclonal antibody from a hybridoma

binding result (peptide 48): binds
binding result (peptide 47): binds
binding result (peptide 46): binds
Kd [3]: 2.6 nM
B3: antibody LMH 87 (antibody, V domains shown)
VH: QVQLQQSGPELVKSGASVKMSCKASGNTLKDDHVHWVKQRPGQGLEWIGWIYPGGGRTRYNEKFKGKTTLTADKPSSTVNMLLSSLTSEDSAIYFCTNLVFDVWGAGTTVTVSS
VL: DIVMTQAAPSVPVTPGESVSISCRSSKSLLHSNGNTYLYWFLQRPGQSPQVLIYRMSNLASGVPDRFSGSGSGTAFTLRIRRVEAEDVGVYYCMQNLEYPFTFGGGTKLEIK
notes: as for B2
